This sample holds only a part of the variants without activity.
B1: TPR 5TU (parent)
chain: GGAUCUUCUCGAUCUAACAAAAAAGACAAAUCUGCCACAAAGCUUGAGAGCAUCUUCGGAUGCAGAGGCGGCAGCCUUCGGUGGCGCGAUAGCGCCAACGUUCUCAACUAUGACACGCAAAACGCGUGCUCCGUUGAAUGGAGUUUAUCAUG

Variants of: B1
Experiment: polymerase ribozyme fitness, log enrichment relative to wild type (log ratio); higher = more active; in vitro selection for triplet polymerase activity
Summary of the method: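 Fitness measures genotype enrichment against wild-type enrichment on a logarithmic scale, with inverse-variance-weighted averaging of replicates. The logarithm is base 2, and genotypes were kept only with ≥10 input reads and ≥1 read per output in Illumina sequencing. The sequenced libraries came from one triplicate in vitro selection round, including frozen incubation at −7 °C, of PCR-built, transcribed mutant libraries of each subunit of a heterodimeric triplet polymerase ribozyme.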

| Variant | polymerase ribozyme fitness (log ratio) |
| --- | --- |
| GGAUCUUCUCGAUCUAACAAAAAAGACAAAUCUGCCACAAAGCUUGAGAGCAUCUUCGGAUGCAGAGGCGGCAGUCUUCGGUGGUCCGAUAGCGCCAACGUUCUCAACUAUGACACGCAAAACGCGUGCUCCGUUGAAUGGAGUUUAUCAUG | -1.49 |
| GGAUCUUCUCGAUCUAACAAAAAAGACAAAUCUGCCACAAAGCUUGAGAGCAUCUUCGGAUGCAGAGGCGGCAGGCUUCGGUGGCGCAAUAGCGCCAACGUUCUCAACUAUGACACGCAAAACGCGUGCUCCGUUGAAUGGAGUUGAUCAUG | ≤ -4.2 |
| GGAUCUUCUCGAUCUAACAAAAAAGACAAAUCUGCCACAAAGCUUGAGAGCAUCUUCGGAUGCAGAGGCGGCAGUCUUCGGUGGCGCGAUAGCGCCAACGUUCUCAACUAUGACACGCAAGACGCGUGCUCCGUUGAAUGGAGUUUAUCAUG | -0.596 |
| GGAUCUUCUCGAUCUAACAAAAAAGACAAAUCUGCCACAAAGCUUGAGAGCAUCUUCGGAUGCAGAGGCGGCAGUCUUCGGUGGCGCGAUCGCGCCAACGUUCUCAACUAUGACACGCGAAACGCGUGCUCCGUUUAAUGGAGUUUAUCAUG | ≤ -4.2 |
| GGAUCUUCUCGAUCUAACAAAAAAGACAAAUCUGCCACAAAGCUUGAGAGCAUCUUCGGAUGCAGAGGCGGCAGGCUUCGGUGGCGCGAUAUCGCCAACGUUGUCAACUAUGACACGCAAACCGCGUGCUCCGUUGAAUGGAGUUUAUCAUG | ≤ -4.2 |
| GGAUCUUCUCGAUCUAACAAAAAAGACAAAUCUGCCACAAAGCUUGAGAGCAUCUUCGGAUGCAGAGGCGGCAGGCUUCGGUGGCGCGAUAGCGCCAACGUUCUCAACUAUGACACGCAAAACGCGUGUUCCGUUGAAUGGAGUUUAUCAUG | ≤ -4.2 |
| GGAUCUUCUCGAUCUAACAAAAAAGACAAAUCUGCCACAAAGCUUGAGAGCAUCUUCGGAUGCAGAGGCGGCAGUCUUCGGUGGUGCGAUAGCGCCAACGUUCUCAACUAGGACACGCAAUACGCGUGCUCCGUUGAAUGGAGUUUAUCAUA | ≤ -4.2 |
| GGAUCUUCUCGAUCUAACAAAAAAGACAAAUCUGCCACAAAGCUUGAGAGCAUCUUCGGAUGCAGAGGCGGCAGGCUUCGGUGGCGCGAUAGUGCCAACGUUCUCAACUAUGACACGCAAAACGCGUGCUCCGUUGAAUGGAGUUUAUCAUG | -3.74 |
| GGAUCUUCUCGAUCUAACAAAAAAGACAAAUCUGCCACAAAGCUUGAGAGCAUCUUCGGAUGCAGAGGCGGCAGGCUUCGGUGGCGCGAUAGCGCUAACGUUCUCAACUAUGACACGCACAACGCGUGCUCCGUUGAAUGGAGUUUAUCAUG | ≤ -4.2 |
| GGAUCUUCUCGAUCUAACAAAAAAGACAAAUCUGCCACAAAGCUUGAGAGCAUCUUCGGAUGCAGAGGCGGCAGGCUUCGAUGGCGCGAUAUCGCCAACGUUCUCAACUAUGACACGCAAAACGGGUGCUCCGUUGAAUGGAGUUUAUCAUG | ≤ -4.2 |
| GGAUCUUCUCGAUCUAACAAAAAAGACAAAUCUGCCACAAAGCUUGAGAGCAUCUUCGGAUGCAGAGGCGGCAGGCUUCGGUGGUGCGAUAGCGCCAACGUUCUCCACUAUGACGCGCAAAACGCGUGCUCCGUUGAAUGUAGUUUAUCAUG | ≤ -4.2 |
| GGAUCUUCUCGAUCUAACAAAAAAGACAAAUCUGCCACAAAGCUUGAGAGCAUCUUCGGAUGCAGAGGCGGCAGGCUUCGGUGGUGCGAUAGCGCCAACGUUCUCAACUAUGACACGCAAAACGCGUGCUCCGUUGAAUGGAGUUUAUCAUG | -3.58 |
| GGAUCUUCUCGAUCUAACAAAAAAGACAAAUCUGCCACAAAGCUUGAGAGCAUCUUCGGAUGCAGAGGCGGCAGUCUUCGGUGGCGCGAUGGCGCCAACGUUCACAACUAUGACACGCAAAACGCGUGCUCCGUUGAAAGGAGUUUAUCAUG | ≤ -4.2 |
| GGAUCUUCUCGAUCUAACAAAAAAGACAAAUCUGCCACAAAGCUUGAGAGCAUCUUCGGAUGCAGAGGCGGCAGUCUUCGGUGGCGCGAUAGUGCCAACGUUCUCAACUAUGACACGCAAAACGCGUGCUCCGUUGAAUGGAGUUUAUCAUG | -0.656 |
| GGAUCUUCUCGAUCUAACAAAAAAGACAAAUCUGCCACAAAGCUUGAGAGCAUCUUCGGAUGCAGAGGCGGCAGUCUUCGGUGGCGCGAUAGGGCCAACGUUCUCAACUAUGACACGCAAAACGCGUGCUCCGUUGAAUGGAGUUUAUCAUG | -3 |
| GGAUCUUCUCGAUCUAACAAAAAAGACAAAUCUGCCACAAAGCUUGAGAGCAUCUUCGGAUGCAGAGGCGGCAGUCUUCGGUGGCGCGAUAGGGCCAACGUUCUCAACUAUGACACGCAAUAUGCGUGCUCCGUUGAAUGGAGUUUAUCAUG | -2.27 |
| GGAUCUUCUCGAUCUAACAAAAAAGACAAAUCUGCCACAAAGCUUGAGAGCAUCUUCGGAUGCAGAGGCGGCAGGCUUCGGUGGUGAGAUAGCGCCAACGUUCUCAACUAUGGCACGCAAAACGCGUGCUCCGUUGAAUGGAGUUUAUCAUG | ≤ -4.2 |
| GGAUCUUCUCGAUCUAACAAAAAAGACAAAUCUGCCACAAAGCUUGAGAGCAUCUUCGGAUGCAGAGGCGGCAGGCAUCGGUGGCGCGAUGGCGCCAACGUUCUCUACUAUGACACGCAAAACGCGUGCUCCGGUGAAUGGAGUUUAUCAUG | ≤ -4.2 |
| GGAUCUUCUCGAUCUAACAAAAAAGACAAAUCUGCCACAAAGCUUGAGAGCAUCUUCGGAUGCAGAGGCGGCAGUCUUCGGUGGUGCGAUAGCGCCAACGUUCUCAACUAUGACACGCAAAACGCGUGCUCCGUUGAAUGGAGUUUAUCAUG | 0.543 |

| Variant | polymerase ribozyme fitness (log ratio) |
| --- | --- |
| GGAUCUUCUCGAUCUAACAAAAAAGACAAAUCUGCCACAAAGCUUGAGAGCAUCUUCGGAUGCAGAGGCGGCAGUCUUCGGUGGAGCGAUAGCGCCAACGUUCUCAACUAUGACACGCAAAACGCGUGCUCCGUUGAAUGGAGUUUAUCAUG | -1.84 |
| GGAUCUUCUCGAUCUAACAAAAAAGACAAAUCUGCCACAAAGCUUGAGAGCAUCUUCGGAUGCAGAGGCGGCAGGCUUCGGUGACGCGAUAGCGCCAACGUUCUCAACUAUGACACGCAAAACGCGUGCUCCGUUGAAUGGAGUUUAUCAUG | -3.93 |
| GGAUCUUCUCGAUCUAACAAAAAAGACAAAUCUGCCACAAAGCUUGAGAGCAUCUUCGGAUGCAGAGGCGGCAGGCUUCGGUGGCGCGAUACCGCCAACGUUCUCAACUAUGACACGCAAAAAGCGUGCUCCGUUGAAUGGAGUUUAUCAUG | ≤ -4.2 |
| GGAUCUUCUCGAUCUAACAAAAAAGACAAAUCUGCCACAAAGCUUGAGAGCAUCUUCGGAUGCAGAGGCGGCAGGCUUCGGUGGCCUGAUAGCGCCAACGUUCUCAACUAUGACACGCAAAACGCGUGCUCCGUUGAAUGGAGUUUAUCAUG | ≤ -4.2 |
| GGAUCUUCUCGAUCUAACAAAAAAGACAAAUCUGCCACAAAGCUUGAGAGCAUCUUCGGAUGCAGAGGCGGCAGGCUUCGUUGCCGCGAUAGCGCCAACGUUCUCAACUAUGACACGCAAAACGCGUGCUCCGUUGUAUGGAGUUCAUCAUG | ≤ -4.2 |
| GGAUCUUCUCGAUCUAACAAAAAAGACAAAUCUGCCACAAAGCUUGAGAGCAUCUUCGGAUGCAGAGGCGGCAGUCUUCGGUGGCGCGAUAGCGCCAACGUUCUCAACUAUGACACGCAAAGCACGUGCUCCGUUGAAUGGAGUUUAUUAUG | -1.15 |
| GGAUCUUCUCGAUCUAACAAAAAAGACAAAUCUGCCACAAAGCUUGAGAGCAUCUUCGGAUGCAGAGGCGGCAGUCUUAGGUGGCGCGAUAGCGCCAACGUUCUCAACUAUGACACGCAAAACGCGUGCUCCGUUGAAUGGAGUUUAUCAUG | ≤ -4.2 |
| GGAUCUUCUCGAUCUAACAAAAAAGACAAAUCUGCCACAAAGCUUGAGAGCAUCUUCGGAUGCAGAGGCGGCAGUCUUCGGUGGCGCGCUAGCGUCAACGUUCUCAACUAUGACACGCAAAACGCGUGCUCCGUUGAAUGGAGUUUAUCAUG | -0.65 |
| GGAUCUUCUCGAUCUAACAAAAAAGACAAAUCUGCCACAAAGCUUGAGAGCAUCUUCGGAUGCAGAGGCGGCAGUCUUCGGUGGCGCGAUGGCGCCAACGUUCUCAACUAUGACACGCAAAACGCGUGCUCCGUUGAAUGGAGUUUAUCAUG | -3.07 |
| GGAUCUUCUCGAUCUAACAAAAAAGACAAAUCUGCCACAAAGCUUGAGAGCAUCUUCGGAUGCAGAGGCGGCAGGCUUCGGGGGCGCGAUCGCGCCAACGUUCUCAACUAUGACACGCAAAACGCGUGCUCCGUUGAAUGGAGUUUAUCAUG | ≤ -4.2 |
| GGAUCUUCUCGAUCUAACAAAAAAGACAAAUCUGCCACAAAGCUUGAGAGCAUCUUCGGAUGCAGAGGCGGCAGGCUUCGGUGGUGCGAUAGCGCCAACGCUCUCAACUAUGACACGCAAAACGCGUGCUCCGUUGAAUGGAGUUUAUCAUG | ≤ -4.2 |
| GGAUCUUCUCGAUCUAACAAAAAAGACAAAUCUGCCACAAAGCUUGAGAGCAUCUUCGGAUGCAGAGGCGGCAGGCUUCGGUGGCGCGAUAGCCCCAACGUUCUCAACUAUGACACGCAAAACGCGUGCUCCGUUGAAUGGAGUUUAUCAUG | -3.53 |
| GGAUCUUCUCGAUCUAACAAAAAAGACAAAUCUGCCACAAAGCUUGAGAGCAUCUUCGGAUGCAGAGGCGGCAGGCUUCGGUGGCGCGAUAGCACCAACGUUCUCAACUAUGACACGCAAAACGCGUGCUCCGUUGAAUGGAGUUUAUCAUG | -4.08 |
| GGAUCUUCUCGAUCUAACAAAAAAGACAAAUCUGCCACAAAGCUUGAGAGCAUCUUCGGAUGCAGAGGCGGCAGGGUUCGUUGGCGCGAUAGCGGCAACGUUCUCAACUAUGACACGCAAAACGCGUGCUCCGUUGAAUGGAGUUUAUCAUG | ≤ -4.2 |
| GGAUCUUCUCGAUCUAACAAAAAAGACAAAUCUGCCACAAAGCUUGAGAGCAUCUUCGGAUGCAGAGGCGGCAGUCUUCGGUGGCGCGAUAGCGCCAACGUUCUCAACUAUGACACGCAAAUCGCGUGCUCCGUUGAAUGGAGUUUAUCAUG | -0.205 |
| GGAUCUUCUCGAUCUAACAAAAAAGACAAAUCUGCCACAAAGCUUGAGAGCAUCUUCGGAUGCAGAGGCGGCAGGCUUCGGUGGCGCGAUAGCGCCAACGUUCUCAACUAUGACACGUAAAACGCGUGCUCCGUUGAAUGGAGUUUAUCAUG | -3.87 |
| GGAUCUUCUCGAUCUAACAAAAAAGACAAAUCUGCCACAAAGCUUGAGAGCAUCUUCGGAUGCAGAGGCGGCAGUCUUCGGUGGCGCGAUAGCGCCAACGUUCUCAACUAUGACACGCAAAACGCGUGCUCCGUUGCAUGGAGUUUAUCAUG | -3.47 |
| GGAUCUUCUCGAUCUAACAAAAAAGACAAAUCUGCCACAAAGCUUGAGAGCAUCUUCGGAUGCAGAGGCGGCAGGCUUCGGUGGGGCGAUAGCGCCAACGUUCUCAACUAUGACACGCAAAACGCGUGCUCCGUUGAAUGGAGUUUUUCAUG | ≤ -4.2 |
| GGAUCUUCUCGAUCUAACAAAAAAGACAAAUCUGCCACAAAGCUUGAGAGCAUCUUCGGAUGCAGAGGCGGCAGGCUUCGGUGGCGCGAUAGCGCCAACGUUCUCAACUAUGACACGCAAAACGCGUGCUCCGGUGAAUGGAGUUUAUCAUG | -4 |

— the RNAGym collection of RNA variant scans (doi:10.1073/pnas.2313332121)
